Laboratory results published in the DeepSol protein solubility set.

Experiment: soluble on expression in E. coli; label from the status in PepcDB or PDB records
With “MGSDKIHHHHHHMEKENIMTVDIEDFKKSQHILDYIDDDFAIVNSLDGIPYSNDTVRLNCFLIAVCAEGCIQLDINYRTYQLQAGDLLLGLPNTLISRTMLSPKYKIRLAGFSTRFLQRIIKMEKKTWNTAAHIHNNPVKSISEGGDDPVFRFYRDLIVAKINDEPHYYHREVMQHLFSALFCEMLGQLHKEIDAPDKGDSPKEGIKQADYTLRKFVELLSKDKGMHRSVSYYADALCYTPKHFSKVIKQACGRTPLDLINETTIEHIKYRLKRSDKSVKEIAEEFNFPNQSFFGKYVKMHLGTSPANYRNREDE” the “soluble on expression in E. coli” value was “not soluble”.
With “MGSDKIHHHHHHMEKGEPIVVVKEISKSYGKVEALKEVSFAVEQGEVFGLIGPDGAGKSTLFRILTTLLLADKGTATVNGLDVVTDYKQIRTKVGYMPGRFSLYQDLSVEENLEFFATVFHTLIQENYDLIKDIYQQIEPFKKRRAGALSGGMKQKLALSCSLIHKPDILFLDEPTTGVDPVSRKEFWQMLRNLRKQGITIIVSTPIMDEARQCDRIAFINHGQVHGIDTPERILQKFASILCPPPLEREEAQQMAAPVIEVEQLTKSFGHFTAVDHISFQVQRGEIFGFLGANGAGKTTAMRMLCGLSRPTSGVGKVAGYDIFREAEQVKRHIGYMSQKFSLYEDLKVWENIRLFAGIYGMKEMEIEEKTDELLERLGFADERDTLVKNLPLGWKQKLAFSVSIFHEPKIVFLDEPTGGVDPATRRQFWELIYQAADRGITVFVTTHYMDEAEYCNRISIMVDGQIKALDTPARLKEQFGVETMDDVFQQLARHAVRKAD” the “soluble on expression in E. coli” value was “not soluble”.
For “MGSDKIHHHHHHMEKIKGKNTVNCEICLHNSKTRPMFKHEGKNICIECLNALKFPRNFEEMKNEVMDYLDELRIRNNKYNCILGFSGGKDSVVALYLLVKELRIRPLCVTVDNGYLAEEALTNCKNVAKYFGVDWLVINKDFTKFFKETISKGESPCRVCSDMNMHELWQFARQTNIDTIVTGHELPFGTTAIRGMKKGINMLRLLVAYKLTEEDRYNILKEIPWEKPDLGGYTTNCLVLAPALVEFKKKHGFSFEYDRVSAMIRYGLMTREEAEEALKCPEVSDEIYEELKKRGLDFKNLKE”, the “soluble on expression in E. coli” value was “not soluble”.
In the case of “MGSDKIHHHHHHMEKKVLIVGISQKQKDFDYSMEELANLAAANNMEVVGEIRQNIDRENRATYVGKGKVDEIKGLAEMQDARLIIFNDELSPSQIRNLEEALELDVMDRTGLILAIFANRAKTKEAQLQVQIAKLQYELPRIFGQGEDMDQQSGKGGLSNRGSGEKKIETDRRTIKYQIRHLQKELDMLVDDREVRRRKRKKNEIPVVSLVGYTNAGKSTTMNGLVRAYSETAEKQVFEKDMLFATLETSVREIVLPDNKQFLLTDTVGFVSKLPHQLVKAFRSTLEEARDADLLIHVVDYSDPHYKTMMKTTEETLKAVGVEDVPVIYAYNKADLIEGEIYPKQTENTIVFSAREKESLEFLTEVIRKELFASYEKATFLIPFEAGNVVAYLNDHADVLATEYLENGTQIVAEVSPADLQKLAEYQVAE”, the “soluble on expression in E. coli” value is reported as “not soluble”.
In the case of “MGSDKIHHHHHHMEKTILVHAAACAPAESCGYVVNTSAGERYFPCQNLSAEPTMYFRMAPEDYLRAQAAGDVVALVHSHPDGLPFLSDVDRRLQVQSGLPWWLVCHDRIYTFRCVPFLTGRVFEHGVTDCYTLFRDAYHLAGIEMPDFSRGEDWWKNGENLYLDNLEATGFYRVSGEEAQSGDILICCFGSSVANHAAIYCGNGELLHHIPDQLSKRERYTDKWQRRTHSIWRHRAWHESAFTGIYNDLAAALASV”, the “soluble on expression in E. coli” value is reported as “not soluble”.
For “MGSDKIHHHHHHMEKVIYIVWRDPSTKPETFAHDLRTKLAQQLLQLGARGVQINVQDEDVAPAAALRQVNTLPQMDGLVSVWVDSAITSLRRPFDDAVLAATGRMAGYLVTESQPIRNTRHPARAGERTPGFSQLAFLKRPPRLTHEAWLDTWHNRHTQVAIDTQDTFLYVQNVVVRALTYGAPPLDAVVEEGFPEAAMTDPQAFFDAPGDEAKYQRNLAAMMESCQRFIDFDKIDVVASSQYIVRPPAA”, the “soluble on expression in E. coli” value was “not soluble”.
In the case of “MGSDKIHHHHHHMELCTTICVDLAKQVFQLAGEDATGRVIYEDRIKSRQAFHDFLLRLPTTVAVLMECGPGAQAWARLLQAKGNPVRILPAQRVAEHRSGAKNDRNDCYAILRAGRDTSIASIPIKSTTALAIQALHRIRRGNIKRHTALGNQIRGLLLEHGVSMPQGDAAINKHVPRALEDASLPLPDLLRELLDELLMDWLSLGERITALSRRLEATAQEDKVAQRLITIRGVGPIIATAIVAKQTDPSRFASGRMYSAFFGIVPDQHSSGNKIRLGKMSKRGDGYIRSLMIQGAHSVLSQLRPDSDQPDDRRLLRWLSRLGRKEAAIRLANRNLRIIWALLQSDQVYQRKPNEKPEAAMSL”, the “soluble on expression in E. coli” value is reported as “not soluble”.
With “MGSDKIHHHHHHMELKKLDEGLFWPDYKNSIVNFSNSILELFDEKPLHRPFRFPKRVLENVRKVIVMVIDGLSFEIFSDTIHDDDVQVFPCSAVFPTTTAAALPSLYSALTPLEHGFLGYILYLREVGSLVNMIEMSPPGLPRDSVLRFHDFKFTTIFQRLQSKVKSFFLIPRYLLGTGFSRIMSQGSEQIGFSSFGDMIERTLEVLEKHDRTLVFIYWPTLDSIAHKNGVGREYIRELRWIYRILKSELLRRLKQDTLFFLVSDHGQISTPQDNEIWWNFSSEVMRFLDRPPAGEQRMMFLYTKKKRALIEYLKEKYGDFAVFLDTKDVVQLFGTGRKHPEFFSRVGDAVLITRETFSFNYRYTGKEESLSGRHGSLSYQELVVPLVVYRRW” the “soluble on expression in E. coli” value was “not soluble”.
In the case of “MGSDKIHHHHHHMEQCNERPKVSVIIPVYNTCNYVQEALESICQQTLEELEIIVIDDGSTDCSRAIVEEIAIKDTRIQVYKQSNQGLSITRNQGLKFSTGEYIYFMDSDDFLEPDALELCYRKCTKEALDFVFFDAETFTIEPNIPESSFDYQRTLDLPEKICSGIDMLKTQLKTYKFKSSVCLNLFHREFICEERLSFYPGILHEDQLFMIQAYLHASKTGFIRRSFFHRRIRTNSIMTKKFTWKNMEGYLTVTNELLRELPIYPKTYHHTIFFFLRQMLDAAVWQAHTLSLPQRIKLFSLCLKYYRPYVTMRTLMVLLLKTSIHPRQ”, the “soluble on expression in E. coli” value is reported as “not soluble”.
For “MGSDKIHHHHHHMEQKLSESEQYLWHFIETHILEIPDYSIVKLSERANVSTATIVRTMKKKGYEGFTSFKHHLKDKENQNINFSALEKVDRGIRTAILKNEEEVTRTINMIEIGNIEDAIQKIKASRRIIIFARGFSELIAQEMMVKFQLAGKYCELHTDPEIIKNISKKLSKKDVALFVSLNGETQELVVAGKNCYDSEIGTILLTASKHSSLMKYIEIPFVGFKSEGSFFPDYEVRSRLPLSILARILLDAYALRTTT”, the “soluble on expression in E. coli” value was “not soluble”.
For “MGSDKIHHHHHHMEQTGYGEHIAHTVRNVPYETAIQTEDIAGELAKKFALPYNHAKTITNVKLKRMADKGEIERLQKGIYCHVKQTFFGKVTPTADQVLLKTLMVQNGAKIGYESGASLLNKLGLTTLIPRDIEITTNRYGAKLPEGCHIKLRKPPMPVTDENWKYLQFIDVLMYLPDAHTDAEKPEVLLRQHAKEQQLDYLTLIFTARKYYPQKIVLPLIDLLMEVENETASR”, the “soluble on expression in E. coli” value was “not soluble”.
For “MGSDKIHHHHHHMERAAFGKLVQALRREHRDEKGRVWTQEVLAERTQLPKRTIERIENGSLAHLDADILLRLADALELTIGERREFFFAATGIIEQKSATYKRSPEESLQYLIDMIRNMNVPAFVTDQYVNIIAANMITIRFFNIPMELIETAPLLPHGYNLMRVVFGTEYDFRRVVGTMWDEVARHNMQLFRAISLRVRADGYFVELLDNLMQYREFKRFWERAHLETEDTSAENFWYQYTHPVYGLLSYVSSRSQIPTSMGLLSMHTYIPLSPATTDLFAKLSTVANQDVIRLAPWPRSNG”, the “soluble on expression in E. coli” value was “not soluble”.
In the case of “MGSDKIHHHHHHMESHVNILKSDVKIDPSRSPFMKERVEVMYEGDDLESILEQVKEIELGEMTFKVIFVKINDLEGENKIEYAERRIIERRIGDCIDAEADVRNPERTFGIVPLGGRWYFGHYVESKPVWYHHIKKPRSYSTSLSTRVARSVANIAVPNPEGVRAIDPCCGIGTVVVEALSMGINIVGRDISPLVAIGARENIAHFGFDGTITKGPIEEITENYDVAIIDMPYDLFTHATPENQLSILSSARRIAKKVVVVTMETMDDMIHEAGFEIIDRCTTKKGTFSRQILVCE”, the “soluble on expression in E. coli” value is reported as “not soluble”.
In the case of “MGSDKIHHHHHHMEVLSGECRSASSVASAGGGHAESWARYASMDRKGESSMAAQQPTILATSGGYKAGRRSRLEFDALLHHAVELSGVTGRAPRVTHIGTAAGDQRSFNAELDQAAKIAGFDFSHLNLFTMPSIDDPEAHLLEQDVVWVNGGSVVNLLAVWRAHGLDGILRRVWEAGVVLAGVSAGSICWFQGGTTDSYGPQLRPVTNALGFLPYANGVHYDSEVQRRPLVHRLVADGTLGETHCTDDGAGLVYFGTHLAEAVTEVRGKAAYRVTRHIQGGGAATAAEERLEARFLG”, the “soluble on expression in E. coli” value is reported as “not soluble”.
In the case of “MGSDKIHHHHHHMFAGAPLSMLLAMPHRPYRDEADLTLLLRWLSDHAPTTFMHPGDLVWWLYQNTQVDPRQALELLFDGEAGGNELQGFGYCDGSWSVLQGLPDLPAHVWDEMVAAAATRAGGKLTVQPHEWDTPQLAALKRAGFELTDNRMVRLVREVQPCDQEAVALPAGFHFADMSGSEVSPEDRVKVHQDVWHPSKVTLEAYGRLQAAPLYRPDLDVMVVAPSGEIAAYALGWFDPGSRTGLMEPVGTRAAFRRQGLGKGLIREVTHRFAALGAQKVTIGSYEKNVAAVALYTSAGYAARGFWVDWETETAAMKEGQDSA”, the “soluble on expression in E. coli” value is reported as “not soluble”.
In the case of “MGSDKIHHHHHHMFISDLHIGDGSAKDDFFFDKELVNFIEDMSQTEDVELFVVGDGFEILESRTVKEIGLVSFEEVVETLDETVIDEIEKKHSEVFETLKKFSRRHRVYYVVGNHDYHILKNKKLQNALKNRFEKFEILPYYYDPHSKLLVLHGNQFDVINRFTVDRKTKKVIPPLGDYIARYMMINFDSQVVNFAPEDVIRDYDNVRPLLDVFHWFDYVTEIYDLSVDLVELWLKSFLSMLKTREARKWMKNNFPRTHWLSKVFVNRFGGVELGKVLVRSIYTLRKLRRVDYLQKWAKSILKGNLRWKEFMTGYSGDLHEVEEVDILVMGHVHHFAYRIVPTTQGKKLYVNCGSWRPVLEKLGIRKRHGFHRKAELPKIIMDFSGKNVEVKASITNVLGKIQGGDL”, the “soluble on expression in E. coli” value is reported as “not soluble”.
For “MGSDKIHHHHHHMFQPLLDAFIESASIEKMVSKSPPPPLKIAVANWWGDEEIKEFKKSVLYFILSQRYAITLHQNPNESSDLVFSNPLGAARKILSYQNTKRVFYTGENESPNFNLFDYAIGFDELDFNDRYLRMPLYYAHLHYEAELVNDTTAPYKLKDNSLYALKKPSHHFKENHPNLCAVVNDESDLLKRGFASFVASNANAPMRNAFYDALNSIEPVTGGGSVRNTLGYKVGNKSEFLSQYKFNLCFENSQGYGYVTEKILDAYFSHTIPIYWGSPSVAKDFNPKSFVNVHDFNNFDEAIDYIKYLHTHPNAYLDMLYENPLNTLDGKAYFYQDLSFKKILDFFKTILENDTIYHNNPFIFYRDLHEPLISIDDLRVNYDDLRVNYDDLRVNYDDLRVNYDDLRVNYDDLRVNYDDLRVNYDDLRVNYDDLRVNYDDLRVNYDRLLQNASPLLELSQNTTFKIYRKAYQKSLPLLRTIRRWVKK”, the “soluble on expression in E. coli” value was “not soluble”.
With “MGSDKIHHHHHHMFVLKNVKYKDILNIEELHIPARKITVITGKSGTGKTTLLKMLNKLISPDSGEIFFKGTPLTEIDSVELRRKVVMLPQFPVVFPGNVKENLLMGLKFSGKKIPHDEELRKILKFVMLEKDLNDDPEKFSGGEKQRLALARVLLMDPEVLLLDEPTSSLDEKTGIEIIKKVSNFAKSRGKTLVMVTHNPELRKFADVLIELKNGRVL” the “soluble on expression in E. coli” value was “not soluble”.
